The results in this text go back to IntAct's records for PubMed 11872753.

First the molecules themselves.
B1: Acid-sensing ion channel 3 (Rattus norvegicus (Rat)), O35240 (parent)
chain: MKPRSGLEEAQRRQASDIRVFASSCTMHGLGHIFGPGGLTLRRGLWATAVLLSLAAFLYQVAERVRYYGEFHHKTTLDERESHQLTFPAVTLCNINPLRRSRLTPNDLHWAGTALLGLDPAEHAAYLRALGQPPAPPGFMPSPTFDMAQLYARAGHSLEDMLLDCRYRGQPCGPENFTVIFTRMGQCYTFNSGAHGAELLTTPKGGAGNGLEIMLDVQQEEYLPIWKDMEETPFEVGIRVQIHSQDEPPAIDQLGFGAAPGHQTFVSCQQQQLSFLPPPWGDCNTASLDPDDFDPEPSDPLGSPRPRPSPPYSLIGCRLACESRYVARKCGCRMMHMPGNSPVCSPQQYKDCASPALDAMLRKDTCVCPNPCATTRYAKELSMVRIPSRASARYLARKYNRSESYITENVLVLDIFFEALNYEAVEQKAAYEVSELLGDIGGQMGLFIGASLLTILEILDYLCEVFQDRVLGYFWNRRSAQKRSGNTLLQEELNGHRTHVPHLSLGPRPPTTPCAVTKTLSASHRTCYLVTRL
partner: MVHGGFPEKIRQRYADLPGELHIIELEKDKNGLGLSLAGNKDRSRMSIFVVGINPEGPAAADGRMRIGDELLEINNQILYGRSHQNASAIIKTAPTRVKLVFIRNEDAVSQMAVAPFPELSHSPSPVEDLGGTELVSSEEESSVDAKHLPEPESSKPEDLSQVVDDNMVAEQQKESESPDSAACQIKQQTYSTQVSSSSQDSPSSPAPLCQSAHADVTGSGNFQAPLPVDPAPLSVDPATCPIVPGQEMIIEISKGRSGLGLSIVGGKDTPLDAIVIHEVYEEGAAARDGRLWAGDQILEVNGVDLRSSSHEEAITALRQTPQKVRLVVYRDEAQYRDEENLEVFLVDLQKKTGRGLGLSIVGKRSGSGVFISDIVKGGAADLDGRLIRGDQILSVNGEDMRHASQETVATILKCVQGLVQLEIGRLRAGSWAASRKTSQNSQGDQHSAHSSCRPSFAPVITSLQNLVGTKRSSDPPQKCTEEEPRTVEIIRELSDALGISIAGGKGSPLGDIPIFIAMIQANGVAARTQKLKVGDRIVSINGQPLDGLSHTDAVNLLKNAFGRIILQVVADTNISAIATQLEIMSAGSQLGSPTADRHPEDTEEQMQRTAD

The assay covers variants of B1. The note with it: with Patj.
Turning to MKPRSGLEEAQRRQASDIRVFASSCTMHGLGHIFGPGGLTLRRGLWATAVLLSLAAFLYQVAERVRYYGEFHHKTTLDERESHQLTFPAVTLCNINPLRRSRLTPNDLHWAGTALLGLDPAEHAAYLRALGQPPAPPGFMPSPTFDMAQLYARAGHSLEDMLLDCRYRGQPCGPENFTVIFTRMGQCYTFNSGAHGAELLTTPKGGAGNGLEIMLDVQQEEYLPIWKDMEETPFEVGIRVQIHSQDEPPAIDQLGFGAAPGHQTFVSCQQQQLSFLPPPWGDCNTASLDPDDFDPEPSDPLGSPRPRPSPPYSLIGCRLACESRYVARKCGCRMMHMPGNSPVCSPQQYKDCASPALDAMLRKDTCVCPNPCATTRYAKELSMVRIPSRASARYLARKYNRSESYITENVLVLDIFFEALNYEAVEQKAAYEVSELLGDIGGQMGLFIGASLLTILEILDYLCEVFQDRVLGYFWNRRSAQKRSGNTLLQEELNGHRTHVPHLSLGPRPPTTPCAVTKTLSASHRTCYLVTRF [L533F], the “effect of a mutation on the interaction” value is given as “disrupting interaction”.
